Laboratory results published in publication PMC6023931 (Nature Communications, 2018).

B1: ΔN-TLK2, unphosphorylated (N-terminal deletion, with coiled-coil region, kinase domain and C-tail) (domain or fragment, human, UniProt Q86UE8 191-772, looked up)
chain: TEHSCSSQKQISIQHRQTQSDLTIEKISALENSKNSDLEKKEGRIDDLLRANCDLRRQIDEQQKMLEKYKERLNRCVTMSKKLLIEKSKQEKMACRDKSMQDRLRLGHFTTVRHGASFTEQWTDGYAFQNLIKQQERINSQREEIERQRKMLAKRKPPAMGQAPPATNEQKQRKSKTNGAENETPSSGNTELKDTAPALGAHSLLRLTLAEYHEQEEIFKLRLGHLKKEEAEIQAELERLERVRNLHIRELKRIHNEDNSQFKDHPTLNDRYLLLHLLGRGGFSEVYKAFDLTEQRYVAVKIHQLNKNWRDEKKENYHKHACREYRIHKELDHPRIVKLYDYFSLDTDSFCTVLEYCEGNDLDFYLKQHKLMSEKEARSIIMQIVNALKYLNEIKPPIIHYDLKPGNILLVNGTACGEIKITDFGLSKIMDDDSYNSVDGMELTSQGAGTYWYLPPECFVVGKEPPKISNKVDVWSVGVIFYQCLYGRKPFGHNQSQQDILQENTILKATEVQFPPKPVVTPEAKAFIRRCLAYRKEDRIDVQQLACDPYLLPHIRKSVSTSSPAGAAIASTSGASNNSSSN
notes: Tousled-like kinase 2 (TLK2), human; lacks the 1-190 N-terminal fragment, holds the 191-450 region around the CC domains, the kinase domain and the C-tail; the text says once '1-191' and once '1-190' for the missing segment; also called TLK2L; source: E. coli NiCo21(DE3) or Rosetta (DE3) pLysS, co-expressed with lambda phosphatase, purified (Ni-NTA, monoQ, SEC)
B2: ΔN-TLK2-p, phosphorylated ΔN-TLK2 (domain or fragment, human, UniProt Q86UE8 191-772, looked up)
chain: TEHSCSSQKQISIQHRQTQSDLTIEKISALENSKNSDLEKKEGRIDDLLRANCDLRRQIDEQQKMLEKYKERLNRCVTMSKKLLIEKSKQEKMACRDKSMQDRLRLGHFTTVRHGASFTEQWTDGYAFQNLIKQQERINSQREEIERQRKMLAKRKPPAMGQAPPATNEQKQRKSKTNGAENETPSSGNTELKDTAPALGAHSLLRLTLAEYHEQEEIFKLRLGHLKKEEAEIQAELERLERVRNLHIRELKRIHNEDNSQFKDHPTLNDRYLLLHLLGRGGFSEVYKAFDLTEQRYVAVKIHQLNKNWRDEKKENYHKHACREYRIHKELDHPRIVKLYDYFSLDTDSFCTVLEYCEGNDLDFYLKQHKLMSEKEARSIIMQIVNALKYLNEIKPPIIHYDLKPGNILLVNGTACGEIKITDFGLSKIMDDDSYNSVDGMELTSQGAGTYWYLPPECFVVGKEPPKISNKVDVWSVGVIFYQCLYGRKPFGHNQSQQDILQENTILKATEVQFPPKPVVTPEAKAFIRRCLAYRKEDRIDVQQLACDPYLLPHIRKSVSTSSPAGAAIASTSGASNNSSSN
modifications: autophosphorylated (not co-expressed with the lambda phosphatase); 41 phosphosites out of 67 possible Ser/Thr sites, mapped in Fig. 3c
notes: Tousled-like kinase 2 (TLK2), human; lacks the 1-190 N-terminal fragment, holds the CC region, the kinase domain and the C-tail; also called active homodimer (ΔN-TLK2); source: E. coli NiCo21(DE3) or Rosetta (DE3) pLysS, without lambda phosphatase, purified (Ni-NTA, monoQ, heparin, SEC)
B3: ΔN-TLK2-KD, kinase-dead ΔN-TLK2 (D613A) (domain or fragment, human, UniProt Q86UE8 191-772, looked up)
chain: TEHSCSSQKQISIQHRQTQSDLTIEKISALENSKNSDLEKKEGRIDDLLRANCDLRRQIDEQQKMLEKYKERLNRCVTMSKKLLIEKSKQEKMACRDKSMQDRLRLGHFTTVRHGASFTEQWTDGYAFQNLIKQQERINSQREEIERQRKMLAKRKPPAMGQAPPATNEQKQRKSKTNGAENETPSSGNTELKDTAPALGAHSLLRLTLAEYHEQEEIFKLRLGHLKKEEAEIQAELERLERVRNLHIRELKRIHNEDNSQFKDHPTLNDRYLLLHLLGRGGFSEVYKAFDLTEQRYVAVKIHQLNKNWRDEKKENYHKHACREYRIHKELDHPRIVKLYDYFSLDTDSFCTVLEYCEGNDLDFYLKQHKLMSEKEARSIIMQIVNALKYLNEIKPPIIHYDLKPGNILLVNGTACGEIKITAFGLSKIMDDDSYNSVDGMELTSQGAGTYWYLPPECFVVGKEPPKISNKVDVWSVGVIFYQCLYGRKPFGHNQSQQDILQENTILKATEVQFPPKPVVTPEAKAFIRRCLAYRKEDRIDVQQLACDPYLLPHIRKSVSTSSPAGAAIASTSGASNNSSSN
notes: Tousled-like kinase 2 (TLK2), human; ΔN-TLK2 (lacks the 1-190 N-terminal fragment) with the D613A mutation; also called ΔN-TLK-KD; kinase-dead homodimer; source: E. coli NiCo21(DE3) or Rosetta (DE3) pLysS, purified

Target: the molecule itself
Assay: SEC-MALS; samples at 1 mg/ml, Superdex 200 Increase 10/300, 20 mM Tris-HCl, 150 mM NaCl, 0.5 mM TCEP, pH 8.0; run in triplicates

Protein	stoichiometry N	binding result
B1	2	
B2		binds
B3		binds
